In US6033823A, “Mutated penicillin G acylase genes” (priority 1994, dated 2000):
Residue numbers refer to the chain shown, from its start. Numbers in names are those of the source.

How the values were obtained:
[1] = target: T1, Alcaligenes faecalis Penicillin G acylase, wild type (α subunit SEQ ID NO:27, β subunit SEQ ID NO:32) (Alcaligenes faecalis, UniProt O34142); experiment: Deacylation kinetics and phenylacetic acid product inhibition, wild type PenG acylase; format: biochemical; settings: Table 8, wt AF; NIPAB, 0.1 M NaH2PO4, pH 7.5, 25° C.
T1 construct: alpha 202 aa, beta 551 aa; likely recombinant, E. coli host
T1 sequence (O34142 27-228): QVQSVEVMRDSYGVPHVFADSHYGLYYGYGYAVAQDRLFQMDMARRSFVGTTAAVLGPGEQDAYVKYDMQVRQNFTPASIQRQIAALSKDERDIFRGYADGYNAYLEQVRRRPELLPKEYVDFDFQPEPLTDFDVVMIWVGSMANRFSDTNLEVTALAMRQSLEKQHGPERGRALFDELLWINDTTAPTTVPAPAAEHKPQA
T1 sequence (O34142 266-816): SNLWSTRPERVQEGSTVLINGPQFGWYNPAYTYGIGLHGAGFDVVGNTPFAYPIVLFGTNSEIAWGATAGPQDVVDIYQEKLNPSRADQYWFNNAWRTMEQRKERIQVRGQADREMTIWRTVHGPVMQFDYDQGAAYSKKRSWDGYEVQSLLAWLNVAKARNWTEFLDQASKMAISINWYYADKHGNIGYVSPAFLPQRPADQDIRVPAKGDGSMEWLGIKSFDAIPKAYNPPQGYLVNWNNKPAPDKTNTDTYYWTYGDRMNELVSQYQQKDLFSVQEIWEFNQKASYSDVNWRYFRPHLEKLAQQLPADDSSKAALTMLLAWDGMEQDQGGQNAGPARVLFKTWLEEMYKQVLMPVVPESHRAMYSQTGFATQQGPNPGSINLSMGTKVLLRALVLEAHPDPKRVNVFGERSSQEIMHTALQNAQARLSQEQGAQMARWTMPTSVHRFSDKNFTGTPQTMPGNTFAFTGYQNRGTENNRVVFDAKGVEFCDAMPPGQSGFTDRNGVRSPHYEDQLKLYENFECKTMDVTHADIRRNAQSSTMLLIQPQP
Procedure: In order to determine enzymatic activity the acylases were incubated with substrate at room temperature in buffered solution. In case β-lactamase impurity was expected to be present in the enzyme preparations, 1.0 mM -lactamase inhibitor 6-bromo-penicillanic acid was added to the assay. The reactions were stopped by adding an excess PMSF. For some mutants which were less sensitive to PMSF inhibition, the reactions were stopped by adding 0.5 M HCl or 0.5 M acetic acid until the pH was between 3 and 4. When reactions were subsequently analysed by HPLC, the reactions were stopped by dilution with the correponding elution solvent (see table 1). […]
(§1) The composition of the reaction mixtures was determined by high-performanceliquid chromatography (HPLC)(table 1). Concentrations were determined by using standards of known concentration.
In a continuous assay Penicillin G acylase was assayed spectro-fotometrically with the chromogenic substrate NIPAB [6-nitro-3-phenylacetamido-benzoic acid]. The liberation of 3-amino-6-nitrobenzoic acid was monitored by measuring the extinction at 405 nm in a Kontron 610 kinetic spectrofotometer. […]
Initial rate measurements were performed with excess substrate over the enzyme. Catalytic parameters were derived from least-squares fitting of the measured initial rates plotted for various substrate concentrations according to the Michaelis-Menten equation. […]

[2] = substrate: CC1(C)S[C@@H]2[C@H](NC(=O)COc3ccccc3)C(=O)N2[C@H]1C(=O)O; experiment: Deacylation kinetics and phenylacetic acid product inhibition, mutant A:M143V; format: biochemical, Alcaligenes faecalis; settings: other: A:M143V; 40 mM NaH2PO4, pH 7.5, 37° C.; pH 7.5; 37.0 °C
Procedure: (§2) In order to determine enzymatic activity the acylases were incubated with substrate at room temperature in buffered solution. In case β-lactamase impurity was expected to be present in the enzyme preparations, 1.0 mM -lactamase inhibitor 6-bromo-penicillanic acid was added to the assay. The reactions were stopped by adding an excess PMSF. For some mutants which were less sensitive to PMSF inhibition, the reactions were stopped by adding 0.5 M HCl or 0.5 M acetic acid until the pH was between 3 and 4. When reactions were subsequently analysed by HPLC, the reactions were stopped by dilution with the correponding elution solvent (see table 1). In addition substrates were incubated under assay conditions in absence of enzyme. If necessary enzyme assays were corrected for non-enzymatic hydrolysis
as §1
(§3) In a continuous assay Penicillin G acylase was assayed spectro-fotometrically with the chromogenic substrate NIPAB [6-nitro-3-phenylacetamido-benzoic acid]. The liberation of 3-amino-6-nitrobenzoic acid was monitored by measuring the extinction at 405 nm in a Kontron 610 kinetic spectrofotometer. […] Initial rate measurements were performed with varying concentration of NIPAB. […]
(§4) Initial rate measurements were performed with excess substrate over the enzyme. Catalytic parameters were derived from least-squares fitting of the measured initial rates plotted for various substrate concentrations according to the Michaelis-Menten equation.
(§5) The complete conversion of NIPAB was followed as a funtion of time at 20, 50 and 100 μM NIPAB by following the increase in absorbtion at 405 nm. Products of this conversion are phenylacetic acid and 3-amino-6-nitrobenzoic acid. […] The progress curves of the deacylation of NIPAB could be fitted very well when product inhibition by phenylacetic acid was taken into account. The dissociation constants (usually referred to as inhibition constant Ki) for phenylacetic acid which could be derived from the progress curves is shown in table 11. For these mutants the yield of the conversion in a fixed time span is higher than for wild type. Alternatively, in order to obtain a certain yield a shorter conversion time is needed for the mutants.

[3] = substrate: CC1(C)S[C@@H]2[C@H](NC(=O)[C@H](N)c3ccc(O)cc3)C(=O)N2[C@H]1C(=O)O; experiment: as above; format: biochemical, Alcaligenes faecalis; settings: other: A:M143V; 20 mM NaH2PO4, pH 7.0, 37° C.; pH 7.0; 37.0 °C
Procedure: as §2, §1, §3, §4, §5

[4] = substrate: O=C(Cc1ccccc1)Nc1ccc([N+](=O)[O-])c(C(=O)O)c1; experiment: as above; format: biochemical, Alcaligenes faecalis; settings: other: A:M143V; 0.1M NaH2PO4, pH 7.5, 25° C.; pH 7.5; 25.0 °C
Procedure: as §2, §1, §3, §4, §5

[5] = substrate: NC(=O)[C@H](N)c1ccccc1; experiment: as above; format: biochemical, Alcaligenes faecalis; settings: other: A:M143V; 20 mM NaH2PO4, pH 7.0, 37° C.; pH 7.0; 37.0 °C
Procedure: as §2, §1, §3, §4, §5

[6] = substrate: CC1(C)S[C@@H]2[C@H](NC(=O)[C@H](N)c3ccccc3)C(=O)N2[C@H]1C(=O)O; experiment: as above; format: biochemical, Alcaligenes faecalis; settings: other: A:M143V; 20 mM NaH2PO4, pH 7.0, 37° C.; pH 7.0; 37.0 °C
Procedure: as §2, §1, §3, §4, §5

[7] = substrate: CC1=C(C(=O)O)N2C(=O)[C@@H](NC(=O)Cc3ccccc3)[C@H]2SC1; experiment: as above; format: biochemical, Alcaligenes faecalis; settings: other: A:M143V; 20 mM NaH2PO4, pH 7.5, 37° C.; pH 7.5; 37.0 °C
Procedure: as §2, §1, §3, §4, §5

[8] = substrate: CC1(C)S[C@@H]2[C@H](NC(=O)Cc3ccccc3)C(=O)N2[C@H]1C(=O)O; experiment: as above; format: biochemical, Alcaligenes faecalis; settings: other: A:M143V; 40 mM NaH2PO4, pH 7.5, 37° C.; pH 7.5; 37.0 °C
Procedure: as §2, §1, §3, §4, §5

[9] = substrate: CC1(C)S[C@@H]2[C@H](NC(=O)COc3ccccc3)C(=O)N2[C@H]1C(=O)O; experiment: Deacylation kinetics, mutant A:F147Y; format: biochemical, Alcaligenes faecalis; settings: other: A:F147Y; 40 mM NaH2PO4, pH 7.5, 37° C.; pH 7.5; 37.0 °C
Procedure: as §2, with “In” for “In order to determine enzymatic activity the acylases were incubated with substrate at room temperature in buffered solution. In”
as §1
(§6) In a continuous assay Penicillin G acylase was assayed spectro-fotometrically with the chromogenic substrate NIPAB [6-nitro-3-phenylacetamido-benzoic acid]. The liberation of 3-amino-6-nitrobenzoic acid was monitored by measuring the extinction at 405 nm in a Kontron 610 kinetic spectrofotometer. […] Initial rate measurements were performed with varying concentration of NIPAB.
(§7) The kinetics of enzymatic hydrolysis of PenG, PenV, CefG were also studied by alkaline titration (0, OlM KOH), using a Radiometer pH-stat. All experiments were carried out in a buffer free medium.
as §4

[10] = substrate: CC1(C)S[C@@H]2[C@H](NC(=O)[C@H](N)c3ccc(O)cc3)C(=O)N2[C@H]1C(=O)O; experiment: Deacylation kinetics, mutant A:F147Y; format: biochemical, Alcaligenes faecalis; settings: other: A:F147Y; 20 mM NaH2PO4, pH 7.0, 37° C.; pH 7.0; 37.0 °C
Procedure: as §2, with “In” for “In order to determine enzymatic activity the acylases were incubated with substrate at room temperature in buffered solution. In”
as §1, §6, §7, §4

[11] = substrate: O=C(Cc1ccccc1)Nc1ccc([N+](=O)[O-])c(C(=O)O)c1; experiment: Deacylation kinetics, mutant A:F147Y; format: biochemical, Alcaligenes faecalis; settings: other: A:F147Y; 0.1M NaH2PO4, pH 7.5, 25° C.; pH 7.5; 25.0 °C
Procedure: as §2, with “In” for “In order to determine enzymatic activity the acylases were incubated with substrate at room temperature in buffered solution. In”
as §1, §6, §7, §4

[12] = substrate: NC(=O)[C@H](N)c1ccccc1; experiment: Deacylation kinetics, mutant A:F147Y; format: biochemical, Alcaligenes faecalis; settings: other: A:F147Y; 20 mM NaH2PO4, pH 7.0, 37° C.; pH 7.0; 37.0 °C
Procedure: as §2, with “In” for “In order to determine enzymatic activity the acylases were incubated with substrate at room temperature in buffered solution. In”
as §1, §6, §7, §4

[13] = substrate: CC1(C)S[C@@H]2[C@H](NC(=O)[C@H](N)c3ccccc3)C(=O)N2[C@H]1C(=O)O; experiment: Deacylation kinetics, mutant A:F147Y; format: biochemical, Alcaligenes faecalis; settings: other: A:F147Y; 20 mM NaH2PO4, pH 7.0, 37° C.; pH 7.0; 37.0 °C
Procedure: as §2, with “In” for “In order to determine enzymatic activity the acylases were incubated with substrate at room temperature in buffered solution. In”
as §1, §6, §7, §4

[14] = substrate: CC1=C(C(=O)O)N2C(=O)[C@@H](NC(=O)Cc3ccccc3)[C@H]2SC1; experiment: Deacylation kinetics, mutant A:F147Y; format: biochemical, Alcaligenes faecalis; settings: other: A:F147Y; 20 mM NaH2PO4, pH 7.5, 37° C.; pH 7.5; 37.0 °C
Procedure: as §2, with “In” for “In order to determine enzymatic activity the acylases were incubated with substrate at room temperature in buffered solution. In”
as §1, §6, §7, §4

[15] = substrate: CC1(C)S[C@@H]2[C@H](NC(=O)Cc3ccccc3)C(=O)N2[C@H]1C(=O)O; experiment: Deacylation kinetics, mutant A:F147Y; format: biochemical, Alcaligenes faecalis; settings: other: A:F147Y; 40 mM NaH2PO4, pH 7.5, 37° C.; pH 7.5; 37.0 °C
Procedure: as §2, with “In” for “In order to determine enzymatic activity the acylases were incubated with substrate at room temperature in buffered solution. In”
as §1, §6, §7, §4

How did the Vmax [1] turn out when `O=C(Cc1ccccc1)Nc1ccc([N+](=O)[O-])c(C(=O)O)c1` [NIPAB, 6-nitro-3-phenylacetamido-benzoic acid] was run?
Its Vmax is 37.0 U/mg.

B1: Alcaligenes faecalis Penicillin G acylase mutant A:M143V (Alcaligenes faecalis; M169V) (protein)
chain 1: T1 sequence (O34142 27-228) with M143V
chain 2: T1 sequence (O34142 266-816)
notes: alpha 202 aa, beta 551 aa; recombinant, E. coli host
Which results are given for B1?
Km [2]: 31 µM; Vmax [2]: 10.3 U/mg; Km [3]: 21000 µM; Vmax [3]: .2 U/mg; Km [4]: 17 µM; Vmax [4]: 35.7 U/mg; Km [5]: 35000 µM; Vmax [5]: 22.2 U/mg; Km [6]: 1500 µM; Vmax [6]: 23.0 U/mg; Km [7]: 7 µM; Vmax [7]: 56.4 U/mg; Km [8]: 6 µM; Vmax [8]: 40.5 U/mg

B2: Alcaligenes faecalis Penicillin G acylase mutant A:F147Y (Alcaligenes faecalis; F173Y) (protein)
chain 1: T1 sequence (O34142 27-228) with F147Y
chain 2: T1 sequence (O34142 266-816)
notes: as for B1
B2 was tested. Which Km [9] did it give?
The Km was 51 µM.

What about the Vmax [9] of the same molecule?
Its Vmax is 0.8 U/mg.

What about the Km [10] of the same molecule?
The Km was 19000 µM.

And the Vmax [10]?
Its Vmax is 0.1 U/mg.

What about the Km [11] of the same molecule?
The Km was 5 µM.

And the Vmax [11]?
The Vmax was 18.0 U/mg.

And the Km [12]?
The Km was 1700 µM.

And the Vmax [12]?
Its Vmax is 32.7 U/mg.

And the Km [13]?
Its Km is 2600 µM.

What about the Vmax [13] of the same molecule?
The Vmax was 13.6 U/mg.

And the Km [14]?
The Km was 6 µM.

What about the Vmax [14] of the same molecule?
Its Vmax is 4.0 U/mg.

And the Km [15]?
The Km was 4 µM.

And the Vmax [15]?
Its Vmax is 5.9 U/mg.
